Experimental data published in PMC2929395.
Where a chain is given by its changes, count along the chain named. Names may count otherwise.

B1: PanK3(S195V) (Homo sapiens; S195V) (protein)
chain: MKIKDAKKPSFPWFGMDIGGTLVKLSYFEPIDITAEEEQEEVESLKSIRKYLTSNVAYGSTGIRDVHLELKDLTLFGRRGNLHFIRFPTQDLPTFIQMGRDKNFSTLQTVLCATGGGAYKFEKDFRTIGNLHLHKLDELDCLVKGLLYIDSVSFNGQAECYYFANASEPERCQKMPFNLDDPYPLLVVNIGSGVVILAVHSKDNYKRVTGTSLGGGTFLGLCSLLTGCESFEEALEMASKGDSTQADKLVRDIYGGDYERFGLPGWAVASSFGNMIYKEKRESVSKEDLARATLVTITNNIGSVARMCAVNEKINRVVFVGNFLRVNTLSMKLLAYALDYWSKGQLKALFLEHEGYFGAVGALLGLPNFS
B2: PanK3 (Homo sapiens) (protein)
chain: B1 chain with V195S

Substrate: CC(C)(CO)[C@@H](O)C(=O)NCCC(=O)O
Assay: purified protein, by the assay type
Settings: pH 7.5, 37.0 °C

Protein | Km (other: substrate) [µM] | Km (other: wild-type PanK3, substrate) [µM]
B1 | 151 ± 16 | 
B2 |  | 14 ± 0.1
